Measurements from patent US20200132691A1, “DETECTION AND TARGETING OF TUMOR-PROMOTING NEUTROPHILS” (THE GENERAL HOSPITAL CORPORATION, priority 2017, published 2020).

Assays:
[1] = Body weight monitoring for DT-induced toxicity; format: in vivo, mouse; conditions: DT-treated mice
Experimental: (§1) Ocn^Cre;Dtr, Ocn^Cre;Dtr/Yfp and control mice lacking either transgene were treated i.p. with DT (100 μl; 20 μg/kg, Sigma-Aldrich) every other day for 9 days with a total of five injections per mouse. In some experiments, osteoblast depletion was performed for 3 consecutive days using DT. For both DT treatment protocols, osteoblast depletion was verified. Body weight was monitored to control for DT-induced toxicity. Osteoblast depletion was verified using histological evaluation of femurs, IHC for osteocalcin and ex vivo whole mount immunofluorescence of Ocn^Cre;Dtr/Yfp mice.

neutrophils = test: Neutrophil counts in wild-type mice treated with DT; conditions: bone marrow
Ocn+ cells = test: In vivo osteoblast depletion with diphtheria toxin; set-up: species or system mouse; conditions: OcnCre;Dtr or OcnCre;Dtr/Yfp mice; flow cytometry, immunohistochemistry, in situ microscopy, bone histomorphometry
Experimental: as §1

splenocytes = test: In vitro assay of DT-mediated direct effects on hematopoietic cells (splenocytes)

**Q.** With diphtheria toxin [DT] as the substance, how does the body weight [1] read?
**A.** did not affect

**Q.** What about the neutrophil counts (neutrophils) of the same substance?
**A.** maintained

**Q.** And the “Ocn+ cell numbers” value (Ocn+ cells)?
**A.** significantly reduced

**Q.** What about the “viability of hematopoietic cells” value (splenocytes; DT concentration used, in vitro DT titration and in vivo cellular staining by flow cytometry) of the same substance?
**A.** did not affect the viability

**Q.** What about the “killing of CD11b+ myeloid cells” value (splenocytes; cells from OcnCre;Dtr mice, in vitro) of the same substance?
**A.** not killed

**Q.** What about the “killing of DTR+ cells” value (splenocytes; positive control, in vitro) of the same substance?
**A.** ability to kill
